According to patent US20240271091A1 (University of Pennsylvania, published 2024):
No end group written: not given here.

Target: BSA (UniProt P02769 25-607)
Test: UV photocrosslinking of hIgG2 in the presence of BSA

B1: photoreactive Protein G (pAbBD), BPA position not stated (designed binder)
chain: MTFKLIINGKTLKGEITIEAVDAAEAEKIFKQYANDYGIDGEWTYDDATKTFTVTE
modifications: also: contains benzoylphenylalanine (BPA), position not given here
B1: no binding (tested: 1% BSA solution (200-times molar excess)).
